Measurements from patent US20200247886A1 (ZLIP, published 2020).
Like-named read-outs stand apart in the source and are kept apart here. Each block holds one binder with its values, some of them ahead of it.

Tests used:
[1] = target: T1, human CD47-Fc protein (Novoprotein, Cat#CG18) (human, UniProt Q08722 19-139); test: IC50 (nM) as grade, blocking of soluble CD47 binding to SIRPα-expressing CHO cells; legend ++: >1 nM and <10 nM
T1 construct: Bought protein; also called CD47-hFc; hCD47-hFc fusion protein; not shown: human IgG Fc of the bought fusion protein

[2] = target: T2, human CD47 expressed on cells (CD47 expressing CHO cells, Jurkat, HL60, DLD1, Raji) (human, UniProt Q08722 19-292); test: EC50 (nM) as grade, binding on CHO-CD47 cells; legend +++: >0.05 nM and <1 nM
T2 construct: also called CHO-CD47; IAP

[3] = target: T3, CHO/mCD47-GFP (mouse, UniProt Q61735); test: flow cytometry on CHO cells expressing mouse CD47-GFP, binding percentage
T3 construct: on the cell surface; also called mouse CD47 expressed on CHO cells; CHO cell expressing mouse CD47
T3 sequence (receptor, looked up): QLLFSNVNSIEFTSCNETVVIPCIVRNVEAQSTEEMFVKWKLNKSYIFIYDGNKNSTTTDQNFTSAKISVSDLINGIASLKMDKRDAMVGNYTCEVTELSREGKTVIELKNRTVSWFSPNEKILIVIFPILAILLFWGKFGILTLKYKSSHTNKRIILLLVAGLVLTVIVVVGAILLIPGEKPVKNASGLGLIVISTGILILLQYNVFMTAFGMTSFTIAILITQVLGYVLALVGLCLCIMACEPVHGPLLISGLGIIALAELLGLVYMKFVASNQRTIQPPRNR

[4] = target: T2, human CD47 expressed on cells (CD47 …); test: EC50 (nM) as grade, binding on Jurkat cells; legend +++: >0.05 nM and <1 nM
[5] = target: T4, CD47 protein (construct not stated; SPR antigen, CD47 coated ELISA plates) (Homo sapiens (Human), UniProt Q08722 19-139, limits assumed); test: SPR (Biacore T100), affinity (nM) as grade; legend +: >10 nM and <40 nM
T4 construct: also called the antigen

[6] = target: T1, human CD47-Fc protein (Novoprotein, …); test: IC50 (nM) as grade, neutralizing ELISA, CD47-hFc on SIRPα coated plate; legend ++++: <8 nM
[7] = target: T2, human CD47 expressed on cells (CD47 …); test: flow cytometry on human red blood cells, MFI
[8] = target: T2, human CD47 expressed on cells (CD47 …); test: flow cytometry on human platelets, MFI
[9] = target: T5, CD47 on monkey RBC (Macaca fascicularis, UniProt A0A2K5X523); test: flow cytometry on cynomolgus monkey red blood cells expressing CD47, MFI
T5 construct: native, on red blood cells; also called cynomolgus monkey red blood cells expressing CD47

[10] = target: T2, human CD47 expressed on cells (CD47 …); test: flow cytometry blocking assay on Raji cells, SIRPα is the blocked ligand, MFI
[11] = target: T2, human CD47 expressed on cells (CD47 …); test: IC50 (nM) MFI as grade, blocking biotinylated SIRPa-Fc binding to DLD1 cells; legend +: >20 nM
[12] = target: T2, human CD47 expressed on cells (CD47 …); test: IC50 (nM) Frequency as grade, blocking biotinylated SIRPa-Fc binding to DLD1 cells; legend +++: <1 nM
[13] = target: T2, human CD47 expressed on cells (CD47 …); test: flow cytometry on DLD1 cells, IgG, frequency
[14] = target: T2, human CD47 expressed on cells (CD47 …); test: EC50 (nM) as grade, flow cytometry, Fab on DLD1 cells; legend ++: >5 nM and <60 nM
[15] = target: T6, biotin labelled polyhistidine tagged CD47 protein (Novoprotein, Cat#321) (human, UniProt Q08722 19-139, biotin labelled (site not stated)); test: IC50 (nM) as grade, Fab blocking biotinylated CD47 binding to SIRPα-CHO cells; legend ++: >10 nM and <65 nM
T6 construct: Bought protein; also called biotinylated CD47; biotinylated human CD47 protein; not shown: polyhistidine tag

[16] = target: T2, human CD47 expressed on cells (CD47 …); test: EC50 (nM) as grade, flow cytometry, Fab on HL60 cells; legend +++: <1 nM
[17] = target: T2, human CD47 expressed on cells (CD47 …); test: flow cytometry on human red blood cells, donor 2, MFI; EC50 (nM) table beside the legend
[18] = target: T2, human CD47 expressed on cells (CD47 …); test: flow cytometry on human platelets, donor 2, MFI
[19] = target: T2, human CD47 expressed on cells (CD47 …); test: flow cytometry on human platelets, donor 1, MFI
[20] = target: T2, human CD47 expressed on cells (CD47 …); test: flow cytometry on human red blood cells, donor 1, MFI
[21] = target: T2, human CD47 expressed on cells (CD47 …); test: flow cytometry blocking assay on Raji cells, SIRPα is the blocked ligand, MFI; remark: listed apart in the source
[22] = target: T2, human CD47 expressed on cells (CD47 …); test: IC50 as grade, SIRPα blocking on Raji cells (second part of the table); legend +++: <1 nM
[23] = target: T2, human CD47 expressed on cells (CD47 …); test: flow cytometry on human red blood cells, donor 2, MFI

- IC50 [1]: 1 to 10 nM
- EC50 [2]: 0.05 to 1 nM
- binding result [3]: no binding (tested: about 0.4 ug/ml)
- EC50 [4]: 0.05 to 1 nM
- Affinity by SPR [5]: 10 to 40 nM
- IC50 [6]: < 8 nM
B1: Positive 1 (commercial anti-CD47 blocking antibody, eBioscience Cat#14-0479) (antibody, V domains shown)
VH: EVQLVESGGDLVKPGGSLKLSCAASGFTFSGYGMSWVRQTPDKRLEWVATITSGGTYTYYPDSVKGRFTISRDNAKNTLYLQIDSLKSEDTAIYFCARSLAGNAMDYWGQGTSVTVSS
VL: DIVMTQSPATLSVTPGDRVSLSCRASQTISDYLHWYQQKSHESPRLLIKFASQSISGIPSRFSGSGSGSDFTLSINSVEPEDVGVYYCQNGHGFPRTFGGGTKLEIK
notes: also called Pos; B6H12

- IC50 [1]: 1 to 10 nM
- EC50 [2]: 0.05 to 1 nM
- binding result [3]: no binding (tested: about 0.4 ug/ml)
- EC50 [4]: 0.05 to 1 nM
- Affinity by SPR [5]: 10 to 40 nM
- EC50 [17]: 0.25 nM
- IC50 [6]: < 8 nM
B6: ABU2 (antibody, V domains shown)
VH: QVQLQQPGAELVRPGASVKLSCKASGYTFTNYWMNWFKQRPEQGLEWIGRIDPYDSETLYNQKFKDKAILTVDKSSSTAYMQLSSLTSEDSAVYYCAGGGKGGFGYWGQGTLVTVSA
VL: DVLMTQTPLSLPVSLGDQASISCRSSQSIVYSNGNTYLEWYLQKPGQSPKLLIYKVSNRFSGVPDRFSGSGSGTDFTLKISRVEAEDLGVYYCFQGSHVPYTFGGGTKLEIK
notes: Murine hybridoma monoclonal antibody

- IC50 [1]: 1 to 10 nM
- EC50 [2]: 0.05 to 1 nM
- binding result [3]: no binding (tested: about 0.4 ug/ml)
- EC50 [4]: 0.05 to 1 nM
- Affinity by SPR [5]: 10 to 40 nM
- EC50 [17]: 0.86 nM
- IC50 [6]: < 8 nM
B7: ABU5 (antibody, V domains shown)
VH: QVQLQQPGAELVKPGASVKMSCKASGYTFTNYWIAWVKRRPGQGLEWIGDFYPGNTSTNYNEKFKTKATLTIDTSSSTAYMQLSSLTSEDSAVYYCARRGRGGSSYWGQGTTLTVSS
VL: DVLMTQTPLSLPVSLGEQASISCRSSQSIVHSNGNTYLEWYLQKPGQSPKLLIYRVANRFSGVPDRFSGSGSGTDFTLKISRVEAEDLGVYYCFQGSHVPWTFGGGTKLEIK
notes: Murine hybridoma monoclonal antibody; also called ABUS [sic]

- IC50 [11]: > 20 nM
- IC50 [12]: < 1 nM
- EC50 (read off the curve) [13]: ~10 nM
B8: ABU24 (IgG, chimeric version of the Fab) (antibody, V domains shown)
VH: EVQLQQPGTELVKPGASVKLSCKASGYTFTSYWMHWVKQRPGQGLEWIGNVVPNNDGTNYNEKFRNKATLTVDKSSSTAYMQLSSLTSEDSAVYYCAVTYFAYWGQGTLVTVSA
VL: DAVVTQESALTTSPGETVTLTCRSSTGAVSTSNYANWVQEKPDHLFTGLIGGTNNRAPGVPARFSGSLIGDKAALTITGAQTEDEAIYFCALWYSNHWVFGGGTKLTVL

- EC50 (read off the curve) [18]: ~0.9 nM
- EC50 (read off the curve) [19]: ~1 nM
- EC50 (read off the curve) [20]: ~1 nM
- IC50 (read off the curve) [21]: ~0.8 nM
- IC50 [22]: < 1 nM
- EC50 (read off the curve) [23]: ~1 nM
B9: H-ABU 11 (antibody, V domains shown)
VH: QVQLVQSGAEVKKPGASVKVSCKASGYTFTDFYINWVRQAPGQRLEWMGWIYLGSGNTKYNEKFKGRVTITRDTSASTAYMELSSLRSEDTAVYYCARREERGFAYWGQGTLVTVSS
VL: DIVMTQSPDSLAVSLGERATINCKSSQSLLSSSQKNYLAWYQQKPGQPPKLLIYWASTRDSGVPDRFSGSGSGTDFTLTISSLQAEDVAVYYCQQFYSYPLTFGQGTKVEIK

Second part, the binder before the results:

B2: H-ABU41-IgG4-P (antibody)
light chain: DVQITQSPSSLSASVGDRVTITCRASKNIGKYLAWFQQKPGKTNKLLIYSGSTLQSGIPSRFSGSGSGTDFTLTISSLQPEDFATYYCQQHNEYPYTFGGGTKVEIK
heavy chain: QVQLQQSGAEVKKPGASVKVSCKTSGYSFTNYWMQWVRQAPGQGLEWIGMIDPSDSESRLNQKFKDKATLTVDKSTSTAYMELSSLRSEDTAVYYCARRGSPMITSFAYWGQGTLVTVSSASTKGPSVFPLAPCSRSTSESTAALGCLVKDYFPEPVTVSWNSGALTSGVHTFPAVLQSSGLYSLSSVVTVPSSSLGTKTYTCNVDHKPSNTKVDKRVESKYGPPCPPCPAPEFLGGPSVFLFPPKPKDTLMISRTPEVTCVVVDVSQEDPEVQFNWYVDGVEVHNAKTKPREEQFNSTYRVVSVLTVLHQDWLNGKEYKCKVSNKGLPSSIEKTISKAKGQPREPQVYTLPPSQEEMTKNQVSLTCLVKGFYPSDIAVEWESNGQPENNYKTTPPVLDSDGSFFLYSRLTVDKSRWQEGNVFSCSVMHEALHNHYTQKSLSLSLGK
- EC50 (read off the curve) [7]: ~4 nM
- EC50 (read off the curve) [8]: ~2 nM
- EC50 (read off the curve) [9]: ~0.1 µg/mL
- IC50 (read off the curve) [10]: ~5 nM

B3: H-ABU41-IgG4-PE (antibody)
light chain: DVQITQSPSSLSASVGDRVTITCRASKNIGKYLAWFQQKPGKTNKLLIYSGSTLQSGIPSRFSGSGSGTDFTLTISSLQPEDFATYYCQQHNEYPYTFGGGTKVEIK
heavy chain: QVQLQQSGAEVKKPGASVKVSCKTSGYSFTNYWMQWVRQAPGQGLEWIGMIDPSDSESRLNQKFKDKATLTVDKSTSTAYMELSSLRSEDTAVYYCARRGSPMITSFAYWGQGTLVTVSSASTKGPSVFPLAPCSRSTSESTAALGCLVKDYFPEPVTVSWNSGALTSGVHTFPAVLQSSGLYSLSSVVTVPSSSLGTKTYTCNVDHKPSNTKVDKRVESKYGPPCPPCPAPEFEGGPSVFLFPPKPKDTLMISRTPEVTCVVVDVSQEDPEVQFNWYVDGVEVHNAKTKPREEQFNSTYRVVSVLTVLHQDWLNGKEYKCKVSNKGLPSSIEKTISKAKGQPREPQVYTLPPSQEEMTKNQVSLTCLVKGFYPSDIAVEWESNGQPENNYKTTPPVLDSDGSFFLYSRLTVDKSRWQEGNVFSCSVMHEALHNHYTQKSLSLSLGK
- EC50 (read off the curve) [7]: ~4 nM
- EC50 (read off the curve) [8]: ~2 nM
- EC50 (read off the curve) [9]: ~0.1 µg/mL
- IC50 (read off the curve) [10]: ~3 nM

B4: ABU40 (IgG, chimeric version of the Fab) (antibody, V domains shown)
VH: EVQLQQPGTELVKPGASVKLSCKASGYSFTTYWMHWVKQRPGQGLEWIGNINPSSGDSHYNEKFKSKATLTVDKSSSTAYMQLNSLTSEDSAVYYCARDYYGAYWGHGTLVTVSA
VL: DIQMTQSPASLSASVGETVTITCRASENIYSYLAWYQQKQGKSPQLLVYNAKTLAEGVPSRFSGSGSGTQFSLKINSLQPEDFGSYYCQHHYGTPLTFGAGTKLELK
- IC50 [11]: > 20 nM
- IC50 [12]: < 1 nM
- EC50 (read off the curve) [13]: ~7 nM

B5: ABU8 (Fab) (Fab, V domains shown)
VH: EVQLQQSGTELVKPGASVKLSCKASGYTFISYWMHWVKQRPGQGLEWIGNINPSSGNTNYNEKFKTKATLTVDKSSSTAYMQLSSLTSEDSAVYYCVRDYYGNYWGQGTTVTVSS
VL: DIQMTQSPASLSASVGETVTITCRASENIYSYLAWYQQKQGKSPQLLVYNAKTLAEGVPSRFSGSGSGTQFSLKIKSLQPEDFGSYYCQHHYGTPLTFGGGTKLELK
- EC50 [14]: 5 to 60 nM
- IC50 [15]: 10 to 65 nM
- EC50 [16]: < 1 nM
